Laboratory results published in US20190194324A1 (Johns Hopkins, published 2019).
Blank lines part the entries; values can stand above or below the binder they belong to.

Columns and labels:
Human α-syn PFF [1] = biological target: T1, Human α-syn PFF (human, UniProt P37840 1-140); assay: expression cloning screen of 352 transmembrane proteins in SH-SY5Y cells
[2] = biological target: T2, α-syn-biotin PFF (biotin-labelled α-synuclein pre-formed fibrils) (mouse, UniProt O55042 1-140); assay: alkaline phosphatase binding assay on cultured cortical neurons, WT minus LAG3-/-
[3] = biological target: T2, α-syn-biotin PFF (biotin-labelled …); assay: cell surface binding assay on cells overexpressing the deletion mutant
Human α-syn PFF [4] = biological target: T1, Human α-syn PFF; assay: expression cloning screen in SH-SY5Y cells, streptavidin-AP staining
[5] = biological target: α-syn-biotin PFF (biotin-labelled α-synuclein pre-formed fibrils) (mouse, UniProt O55042 1-140); assay: cell surface binding on LAG3-overexpressing SH-SY5Y cells, Scatchard analysis; 0% or 0.1% Triton X-100 (the legend marks both values only 'TX-100')

B1: APLP1 (NM_005166) expressed in SH-SY5Y cells (Origene GFC-transfection array clone) (receptor)
chain: SLAGGSPGAAEAPGSAQVAGLCGRLTLHRDLRTGRWEPDPQRSRRCLRDPQRVLEYCRQMYPELQIARVEQATQAIPMERWCGGSRSGSCAHPHHQVVPFRCLPGEFVSEALLVPEGCRFLHQERMDQCESSTRRHQEAQEACSSQGLILHGSGMLLPCGSDRFRGVEYVCCPPPGTPDPSGTAVGDPSTRSWPPGSRVEGAEDEEEEESFPQPVDDYFVEPPQAEEEEETVPPPSSHTLAVVGKVTPTPRPTDGVDIYFGMPGEISEHEGFLRAKMDLEERRMRQINEVMREWAMADNQSKNLPKADRQALNEHFQSILQTLEEQVSGERQRLVETHATRVIALINDQRRAALEGFLAALQADPPQAERVLLALRRYLRAEQKEQRHTLRHYQHVAAVDPEKAQQMRFQVHTHLQVIEERVNQSLGLLDQNPHLAQELRPQIQELLHSEHLGPSELEAPAPGGSSEDKGGLQPPDSKDDTPMTLPKGSTEQDAASPEKEKMNPLEQYERKVNASVPRGFPFHSSEIQRDELAPAGTGVSREAVSGLLIMGAGGGSLIVLSMLLLRRKKPYGAISHGVVEVDPMLTLEEQQLRELQRHGYENPTYRFLEERP
notes: whole, on cells; also called amyloid beta (A4) precursor-like protein 1
binding result (Human α-syn PFF [1]): binds

B3: mouse LAG3 deletion mutant ΔD1 (receptor)
chain: IASPSGVLKLSDWVLLNCSFSRPDRPVSVHWFQGQNRVPVYNSPRHFLAETFLLLPQVSPLDSGTWGCVLTYRDGFNVSITYNLKVLGLEPVAPLTVYAAEGSRVELPCHLPPGVGTPSLLIAKWTPPGGGPELPVAGKSGNFTLHLEAVGLAQAGTYTCSIHLQGQQLNATVTLAVITVTPKSFGLPGSRGKLLCEVTPASGKERFVWRPLNNLSRSCPGPVLEIQEARLLAERWQCQLYEGQRLLGATVYAAESSSGAHSARRISGDLKGGHLVLVLILGALSLFLLVAGAFGFHWWRKQLLLRRFSALEHGIQPFPAQRKIEELERELETEMGQEPEPEPEPQLEPEPRQL
notes: whole, on cells; Expressed in HEK293FT cells; also called D1 domain deletion mutant
binding result [3]: no binding

B4: LAG3 (NM_002286) expressed in SH-SY5Y cells (Origene GFC-transfection array clone) (receptor)
chain: LQPGAEVPVVWAQEGAPAQLPCSPTIPLQDLSLLRRAGVTWQHQPDSGPPAAAPGHPLAPGPHPAAPSSWGPRPRRYTVLSVGPGGLRSGRLPLQPRVQLDERGRQRGDFSLWLRPARRADAGEYRAAVHLRDRALSCRLRLRLGQASMTASPPGSLRASDWVILNCSFSRPDRPASVHWFRNRGQGRVPVRESPHHHLAESFLFLPQVSPMDSGPWGCILTYRDGFNVSIMYNLTVLGLEPPTPLTVYAGAGSRVGLPCRLPAGVGTRSFLTAKWTPPGGGPDLLVTGDNGDFTLRLEDVSQAQAGTYTCHIHLQEQQLNATVTLAIITVTPKSFGSPGSLGKLLCEVTPVSGQERFVWSSLDTPSQRSFSGPWLEAQEAQLLSQPWQCQLYQGERLLGAAVYFTELSSPGAQRSGRAPGALPAGHLLLFLILGVLSLLLLVTGAFGFHLWRRQWRPRRFSALEQGIHPPQAQSKIEELEQEPEPEPEPEPEPEPEPEPEQL
notes: The clone of the screen is named by NM_002286
binding result (Human α-syn PFF [4]): binds

Further lines, results first:

Kd [2]: 0.103 µM
B2: mouse LAG3 (receptor)
chain: GPGKELPVVWAQEGAPVHLPCSLKSPNLDPNFLRRGGVIWQHQPDSGQPTPIPALDLHQGMPSPRQPAPGRYTVLSVAPGGLRSGRQPLHPHVQLEERGLQRGDFSLWLRPALRTDAGEYHATVRLPNRALSCSLRLRVGQASMIASPSGVLKLSDWVLLNCSFSRPDRPVSVHWFQGQNRVPVYNSPRHFLAETFLLLPQVSPLDSGTWGCVLTYRDGFNVSITYNLKVLGLEPVAPLTVYAAEGSRVELPCHLPPGVGTPSLLIAKWTPPGGGPELPVAGKSGNFTLHLEAVGLAQAGTYTCSIHLQGQQLNATVTLAVITVTPKSFGLPGSRGKLLCEVTPASGKERFVWRPLNNLSRSCPGPVLEIQEARLLAERWQCQLYEGQRLLGATVYAAESSSGAHSARRISGDLKGGHLVLVLILGALSLFLLVAGAFGFHWWRKQLLLRRFSALEHGIQPFPAQRKIEELERELETEMGQEPEPEPEPQLEPEPRQL
notes: whole, on cells; In the in vivo co-IP the protein came from brain stem lysates of mice; also called LAG3 full-length (FL); neuronal LAG3

Kd [5]: 0.071 µM
B5: LAG3 overexpressed in transfected cells (SH-SY5Y; HEK293FT) (receptor)
chain: B4 chain
